# Laboratory results as given in US11180767B2, “Protease deficient filamentous fungal cells and methods of use thereof” (GLYKOS FINLAND OY, priority 2012, dated 2021).
# What was measured:
# [1] = system: rituximab antibody producing strain; assay: Treatment of T. reesei rituximab cultures with inhibitors; assay type: cell-based, Trichoderma reesei
# Method: The effectiveness of the inhibitors was also tested with the rituximab antibody producing strain, which contains a VALEKR linker sequence and the pep1 deletion. This strain was grown in triplicate, in small flasks both in presence or absence of chymostatin, SBTI, or pepstatin A. The small shake flasks contained 50 ml of TrMM plus lactose (40 g/l), spent grain extract (20 g/l), and buffer with 100 mM PIPPS at pH 5.5. The SBTI inhibitor was added to the culture at final concentrations of either 100 μg/ml or 500 μg/ml. Chymostatin was used at 100 μM, and pepstatin A was used at 10 μM. Each of the three inhibitors was added to the cultures daily on day 2, 3, 4, and 5.
# Growth of the cultures was followed daily by pH from day 2 until day 7. […] In the PIPPS buffered cultures, the pH decreased from an initial pH of 5.5 down to a pH of 4.8 after day 6. With chymostatin and pepstatin A the cultures were monitored up to day 7. On day 7 the average pH for the control bottles was 4.6, while the average pH for chymostatin treated cultures was 4.9, and the average pH of pepstatin A treated cultures was 5.0.
# Culture supernatant samples (30 μl) were also collected on days 3, 4, and 5 for analysis of antibody production. The analysis was performed by immunoblots using an anti-IgG heavy chain antibody AP conjugate (Sigma #A3188) and an anti-light chain antibody AP conjugate (Sigma #A3812). Each antibody was diluted 1:30,000 in TBST. The full length rituximab heavy chain is about 51 kD, the rituximab light chain CHBI fusion is about 100 kD, and the free rituximab light chain is about 28 kD.
# [2] = system: proteases in supernatant from the 6-fold protease deletion strain M400; assay: Protease stability of proteins spiked into supernatant of the 6-fold protease deletion strain; assay type: biochemical, Trichoderma reesei; settings: pepstatin A 50 μM; SBTI 0.2 mg/ml; pH 4.2, 20 hours, 37°C
# Method: The protease stability of the model proteins IGF1, hGH, and IFNα2b were analyzed by spiking them into supernatant from the 6-fold protease deletion strain (Δpep1Δtsp1Δslp1Δgap1Δgap2Δpep4) M400. The supernatant was collected from a large shake flask culture CAH15. The undiluted supernatant from the shake flask cultivation CAH15 was incubated with the purified model proteins with and without pepstatin A (50 μM) and SBTI (0.2 mg/ml) inhibitors for 20 hours at 37° C. The 5 day culture supernatant pH was around 4.2. The reaction containing 0.05 μg μl of model protein was sampled after 20 hours. 50 mM sodium citrate pH 4.0 spiked with model proteins (0.05 g 1) was used as a buffer control.
# From each reaction 10 μl was loaded into an 18% SDS PAGE gel and run for 30 minutes at 200 V. The proteins in the gel were then transferred to nitrocellulose for immunoblotting. The nitrocellulose membrane was blocked for 1 hour at room temperature with 5% milk in TBST buffer. The individual blots were probed with their specific primary antibody to detect the appropriate model protein for 1 hour at room temperature on a shaker. The mouse anti-IGF1 antibody (R&D systems #mab291) was used at 2 μg/ml diluted in TBST. The mouse anti-rhGH antibody (Abeam #ab51232) was used at 2 μg/ml diluted in TBST. The mouse anti-IFNα2b antibody (Abeam #ab9386) was used at 1 μg/ml diluted in TBST. […]
# [3] = system: SIP purified proteases (PEP2, PEP3, PEP4, PEP5, GAP1, SLP2); assay: Protease activity of SIP purified fractions against casein with inhibitors (EnzChek); assay type: biochemical, Trichoderma reesei; settings: pH 5.5
# Method: Protease activity was then tested against casein both in the presence and absence of protease inhibitors. Protease activity against casein was tested using the EnzChek protease assay kit (Molecular probes #E6638, green fluorescent casein substrate). The working stock solution was prepared by diluting the stock to 10 μg ml in 50 mM sodium citrate, pH 5.5. The purified protease fractions (10 μl) were diluted with […] of sodium citrate, pH 5.5. 100 μl of the diluted substrate was combined with the diluted protease fractions in a 96 well sample plate. The plate was then covered and kept at 37° C. for one to three hours. Fluorescence readings were taken at one, two, and three hours with a Varioskan fluorescent plate reader (Thermo Scientific) using 485 nm excitation and 530 nm emission.
# The SIP inhibitor peptide, pepstatin A, LIP peptide, SBTI, and chymostatin were used as inhibitors. […] SIP, LIP, and pepstatin A were used at a concentration of 60 μM, and SBTI was used at a concentration of 200 μg/ml.
molecule,measurement,setting,value
"SBTI: soybean trypsin inhibitor, trypsin and subtilisin inhibitor (protein) DFVLDNEGNPLENGGTYYILSDITAFGGIRAAPTGNERCPLTVVQSRNELDKGIGTIISSPYRIRFIAEGHPLSLKFDSFAVIMLCVGIPTEWSVVEDLPEGPAVKIGENKDAMDGWFRLERVSDDEFNNYKLVFCPQQAEDDKCGDIGISIDHDDGTRRLVVSKNKPLVVQFQKLDKESL",effect on culture growth (followed by pH),[1],no significant differences in the pH
same,rituximab light chain production vs untreated cultures,[1]; SBTI 100 or 500 μg/ml,minor improvement
same,rituximab heavy chain production vs untreated cultures,"[1]; day 5, SBTI 100 or 500 μg/ml, chymostatin 100 μM",several fold higher
same,"stabilisation of hGH, IFNα2b and IGF1 in supernatant",[2],only a small benefit for product stability
same,proteases inhibited,"[3]; SIP, LIP, pepstatin A 60 μM, SBTI 200 μg/ml",able to inhibit SLP2 and PEP4
same,inhibition of SIP purified protease activity against casein,[3]; FIG. 11,able to inhibit the SLP2 protease
